Source: patent US20240124560A1

Columns and labels:
Experiment in all cases: cell-based or functional assay
[1] = biological target: HIV-1 Env of NAC_JRFL (HIV-1)
[2] = biological target: HIV-1 Env of pseudovirus NIH-078_BJOX015000.11.5 (HIV-1)
[3] = biological target: HIV-1 Env of pseudovirus NIH-064_0260.v5.c1 (HIV-1)
[4] = biological target: HIV-1 Env of pseudovirus NIH-027_CAP45.G3 (HIV-1)
[5] = biological target: HIV-1 Env of pseudovirus NAC_93IN905 (HIV-1)
[6] = biological target: HIV-1 Env of pseudovirus NIH-084_X1254 c3 (clade G) (HIV-1)
[7] = biological target: HIV-1 Env of pseudovirus NIH-103_0815.v3.c3 (HIV-1)
[8] = biological target: HIV-1 Env of NIH-001_6535.3 (HIV-1)
[9] = biological target: HIV-1 Env of pseudovirus NIH-060_Q769ENVd22 (HIV-1)
[10] = biological target: HIV-1 Env of pseudovirus NIH-068_620345.c01 (HIV-1)
[11] = biological target: HIV-1 Env of pseudovirus NIH-020_ZM197M.PB7 (HIV-1)
[12] = biological target: HIV-1 Env of pseudovirus NIH-030_HIV-0013095.2.11 (HIV-1)
[13] = biological target: HIV-1 Env of pseudovirus NIH-034_Ce0393 C3 (HIV-1)
[14] = biological target: HIV-1 Env of NIH-095_6480.v4.c25 (HIV-1)
[15] = biological target: HIV-1 Env of pseudovirus NIH-085_X2088 c9 (clade G) (HIV-1)
[16] = biological target: HIV-1 Env of pseudovirus NIH-066_191084 B7.19 (HIV-1)
[17] = biological target: HIV-1 Env of pseudovirus NIH-119_T211.9 (HIV-1)
[18] = biological target: HIV-1 Env of pseudovirus NIH-026_ZM135M.PL10a (HIV-1)
[19] = biological target: HIV-1 Env of NIH-072_R3265.c06 (HIV-1)
[20] = biological target: HIV-1 Env of pseudovirus NAC_ADA (HIV-1)
[21] = biological target: HIV-1 Env of pseudovirus NIH-117_T278.5 (HIV-1)
[22] = biological target: HIV-1 Env of pseudovirus NIH-102_6545.v4.c1 (HIV-1)
[23] = biological target: HIV-1 Env of NAC_MN (HIV-1) (UniProt P05877)
[24] = biological target: HIV-1 Env of NIH-071_R1166.c01 (HIV-1)
[25] = biological target: HIV-1 Env of pseudovirus NIH-094_3817.v2.c59 (HIV-1)
[26] = biological target: HIV-1 Env of NIH-054_CNE53 (HIV-1)
[27] = biological target: HIV-1 Env of pseudovirus NIH-023_ZM249M.PL1 (HIV-1)
[28] = biological target: HIV-1 Env of pseudovirus NIH-012_1012.11.TC21.3257 (HIV-1)
[29] = biological target: HIV-1 Env of pseudovirus NIH-091_231965.c01 (clade D) (HIV-1)
[30] = biological target: HIV-1 Env of NIH-060_Q769ENVd22 (HIV-1)
[31] = biological target: HIV-1 Env of NIH-047_Ce704809221 1B3 (HIV-1)
[32] = biological target: HIV-1 Env of pseudovirus NIH-096_6952.v1.c20 (HIV-1)
[33] = biological target: HIV-1 Env of NAC_IAVIC22 (HIV-1)
[34] = biological target: HIV-1 Env of pseudovirus NAC_BG505 (HIV-1)
[35] = biological target: HIV-1 Env of pseudovirus NIH-036_Ce2010 F5 (HIV-1)
[36] = biological target: HIV-1 Env of NAC_HxB2 (HIV-1) (UniProt P04578)
[37] = biological target: HIV-1 Env of pseudovirus NIH-048_CNE19 (HIV-1)
[38] = biological target: HIV-1 Env of pseudovirus NIH-049_CNE20 (HIV-1)
[39] = biological target: HIV-1 Env of pseudovirus NIH-038_Ce1172 H1 (HIV-1)
[40] = biological target: HIV-1 Env of pseudovirus NIH-011_1056.10.TA11.1826 (HIV-1)
[41] = biological target: HIV-1 Env of isolate NIH-087_P1981 C5 3 (HIV-1)
[42] = biological target: HIV-1 Env of NIH-114_T257.31 (HIV-1)
[43] = biological target: HIV-1 Env of NAC_92TH021 (HIV-1)
[44] = biological target: HIV-1 Env of NIH-064_0260.v5.c1 (HIV-1)
[45] = biological target: HIV-1 Env of NIH-103_0815.v3.c3 (HIV-1)
[46] = biological target: HIV-1 Env of NIH-031_HIV-16055.2.3 (HIV-1)

Chain of HIV-1 Env of NAC_MN (HIV-1) (P05877 32-856 limits assumed): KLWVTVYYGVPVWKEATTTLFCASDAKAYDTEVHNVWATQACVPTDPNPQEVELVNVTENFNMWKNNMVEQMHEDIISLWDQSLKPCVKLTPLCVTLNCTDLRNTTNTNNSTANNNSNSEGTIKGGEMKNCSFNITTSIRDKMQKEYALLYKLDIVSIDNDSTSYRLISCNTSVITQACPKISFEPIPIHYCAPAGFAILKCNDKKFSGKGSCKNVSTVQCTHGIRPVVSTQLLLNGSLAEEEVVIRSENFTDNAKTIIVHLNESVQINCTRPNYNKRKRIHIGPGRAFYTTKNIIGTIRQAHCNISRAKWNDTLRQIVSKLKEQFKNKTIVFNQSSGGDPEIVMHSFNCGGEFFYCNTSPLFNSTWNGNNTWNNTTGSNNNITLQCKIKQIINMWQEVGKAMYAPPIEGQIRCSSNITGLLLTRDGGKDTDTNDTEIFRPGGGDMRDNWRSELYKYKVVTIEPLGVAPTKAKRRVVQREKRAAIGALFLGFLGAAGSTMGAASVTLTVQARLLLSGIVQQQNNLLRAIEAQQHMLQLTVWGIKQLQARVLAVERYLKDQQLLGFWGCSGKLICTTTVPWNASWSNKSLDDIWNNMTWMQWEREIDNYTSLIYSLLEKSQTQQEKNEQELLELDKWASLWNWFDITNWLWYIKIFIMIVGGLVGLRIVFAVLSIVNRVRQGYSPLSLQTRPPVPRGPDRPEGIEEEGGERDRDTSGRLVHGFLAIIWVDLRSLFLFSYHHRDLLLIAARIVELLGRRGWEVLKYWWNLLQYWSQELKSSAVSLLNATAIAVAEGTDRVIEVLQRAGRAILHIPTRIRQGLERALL

For VRC01 (antibody), the IC80 neutralization [1] was 0.741 µg/mL, the neutralization IC50 [2] was 0.06 µg/mL and the neutralization IC50 [3] was 0.124 µg/mL. For the same substance, the neutralization IC50 [4] was 1.92 µg/mL, the neutralization IC50 [5] was 0.07 µg/mL and the IC50 (µg/ml), TZM-bl cell neutralization assay, pseudovirus [6] was 0.039 µg/mL. For the same substance, the neutralization IC50 [7] was 0.019 µg/mL, the IC80 neutralization [8] was 3.7 µg/mL and the neutralization IC50 [9] was 0.025 µg/mL. The neutralization IC50 [10] was > 50 µg/mL, the neutralization IC50 [11] was 0.17 µg/mL and the neutralization IC50 [12] was 0.0002 µg/mL. The neutralization IC50 [13] was 0.37 µg/mL, the IC80 neutralization [14] was 0.054 µg/mL and the IC50 (µg/ml), TZM-bl cell neutralization assay, pseudovirus [15] was > 50 µg/mL. It also gave a neutralization IC50 [16] of 0.049 µg/mL, a neutralization IC50 [17] of 12.8 µg/mL and a neutralization IC50 [18] of 0.102 µg/mL. For the same substance, the IC80 neutralization [19] was 0.502 µg/mL, the neutralization IC50 [20] was 0.314 µg/mL and the neutralization IC50 [21] was > 50 µg/mL. The neutralization IC50 [22] was > 50 µg/mL, the IC80 neutralization [23] was 0.196 µg/mL and the IC80 neutralization [24] was 1.95 µg/mL. The neutralization IC50 [25] was > 50 µg/mL, the IC80 neutralization [26] was 0.166 µg/mL and the neutralization IC50 [27] was 0.05 µg/mL. It also gave a neutralization IC50 [28] of 0.081 µg/mL, an IC50 (µg/ml), TZM-bl cell neutralization assay, pseudovirus [29] of 0.183 µg/mL and an IC80 neutralization [30] of 0.092 µg/mL. The IC80 neutralization [31] was 1.28 µg/mL, the neutralization IC50 [32] was 0.025 µg/mL and the IC80 neutralization [33] was 1.37 µg/mL. For the same substance, the neutralization IC50 [34] was 0.056 µg/mL, the neutralization IC50 [35] was 0.153 µg/mL and the IC80 neutralization [36] was 0.081 µg/mL. The neutralization IC50 [37] was 0.127 µg/mL, the neutralization IC50 [38] was 4.85 µg/mL and the neutralization IC50 [39] was > 50 µg/mL. The neutralization IC50 [40] was 0.372 µg/mL, the IC80 (µg/ml), TZM-bl pseudovirus neutralization [41] was 0.8 µg/mL and the IC80 neutralization [42] was 6.57 µg/mL. The IC80 neutralization [43] was 1.31 µg/mL, the IC80 neutralization [44] was 0.516 µg/mL and the IC80 neutralization [45] was 0.07 µg/mL. For the same substance, the IC80 neutralization [46] was 0.206 µg/mL.
